Experimental data: PMC13276077

What was measured:
[1] = target: MeCP2 full-length, e2 isoform;histone H1.0;histone octamer (Homo sapiens;Homo sapiens;, UniProt P51608;P07305;P0C0S8;P62807;P68431;P62805 1-486;1-194;2-130;2-126;2-136;2-103, ||H2B T115C;H3.1 C96S;C110A); test: EMSA; histone H1.0 pre-bound (chromatosome); 20 mM HEPES pH 7.5, 75 mM NaCl, 125 mM KCl, 50 uM EDTA, 2.5 mM beta-mercaptoethanol, 5% glycerol, BSA, 1.58 uM 47 bp competitor DNA (nucleosome assays); absent w
[2] = target: MeCP2 MBD;histone octamer (Homo sapiens;, UniProt P51608;P0C0S8;P62807;P68431;P62805 77-167;2-130;2-126;2-136;2-103, |H2B T115C;H3.1 C96S;C110A); test: EMSA; 20 mM HEPES pH 7.5, 75 mM NaCl, 125 mM KCl, 50 uM EDTA, 2.5 mM beta-mercaptoethanol, 5% glycerol, BSA, 1.58 uM 47 bp competitor DNA (nucleosome assays); absent w
[3] = target: HisMBP-MeCP2 205-257 (DIR);histone octamer (Homo sapiens;, UniProt P51608;P0C0S8;P62807;P68431;P62805 205-257;2-130;2-126;2-136;2-103, |H2B T115C;H3.1 C96S;C110A); test: as above
[4] = target: MeCP2 full-length, e2 isoform;histone octamer (Homo sapiens;, UniProt P51608;P0C0S8;P62807;P68431;P62805 1-486;2-130;2-126;2-136;2-103, |H2B T115C;H3.1 C96S;C110A); test: as above
[5] = target: HisMBP-MeCP2 162-309;histone octamer (Homo sapiens;, UniProt P51608;P0C0S8;P62807;P68431;P62805 162-309;2-130;2-126;2-136;2-103, |H2B T115C;H3.1 C96S;C110A); test: as above
[6] = target: MeCP2 R133G;histone octamer (Homo sapiens;, UniProt P51608;P0C0S8;P62807;P68431;P62805 1-486;2-130;2-126;2-136;2-103, R133G|H2B T115C;H3.1 C96S;C110A); test: as above
[7] = target: MeCP2 AT-DIRmut;histone octamer (Homo sapiens;, UniProt P51608;P0C0S8;P62807;P68431;P62805 1-486;2-130;2-126;2-136;2-103, R188G;R190G;K254N;K256N;R268Q|H2B T115C;H3.1 C96S;C110A); test: as above
[8] = target: HisMBP-MeCP2 162-309;histone octamer, acidic patch mutant (Homo sapiens;Homo sapiens, UniProt P51608;P0C0S8;P62807;P68431;P62805 162-309;2-130;2-126;2-136;2-103, |H2A E61A;E91A;E92A;H2B E113A;H3.1 C96S;C110A); test: EMSA; acidic patch mutant histone octamer; 20 mM HEPES pH 7.5, 75 mM NaCl, 125 mM KCl, 50 uM EDTA, 2.5 mM beta-mercaptoethanol, 5% glycerol, BSA, 1.58 uM 47 bp competitor DNA (nucleosome assays); absent w
[9] = target: MeCP2 full-length, e2 isoform;histone octamer, tailless H3 (Homo sapiens;Homo sapiens, UniProt P51608;P0C0S8;P62807;P68431;P62805 1-486;2-130;2-126;26-136;2-103, |H3.1 del1-24;A25C;C96S;C110A); test: EMSA; H3-tailless histone octamer; 20 mM HEPES pH 7.5, 75 mM NaCl, 125 mM KCl, 50 uM EDTA, 2.5 mM beta-mercaptoethanol, 5% glycerol, BSA, 1.58 uM 47 bp competitor DNA (nucleosome assays); absent w
[10] = target: HisMBP-MeCP2 162-309;histone octamer (Homo sapiens;Homo sapiens, UniProt P51608;P0C0S8;P62807;P68431;P62805 162-309;2-130;2-126;2-136;2-103, |H3.1 C96S;C110A); test: EMSA; 20 mM HEPES pH 7.5, 75 mM NaCl, 125 mM KCl, 50 uM EDTA, 2.5 mM beta-mercaptoethanol, 5% glycerol, BSA, 1.58 uM 47 bp competitor DNA (nucleosome assays); absent w
[11] = target: HisMBP-MeCP2 205-257 (DIR) (Homo sapiens, UniProt P51608 205-257); test: EMSA; 20 mM HEPES pH 7.5, 75 mM NaCl, 125 mM KCl, 50 uM EDTA, 2.5 mM beta-mercaptoethanol, 5% glycerol, BSA, 1.58 uM 47 bp competitor DNA (nucleosome assays; absent with free DNA), room temperature 30 min; conditions: protein: recombinant; tags: His-MBP; label: 5' 6-FAM; blunt

Binder	Kd [2] [nM]	Kd [3] [nM]	Kd [4] [nM]	Kd [5] [nM]	Kd [6] [nM]	Kd [7] [nM]	also measured
15-N601-15 nucleosome unmethylated (nucleosome) DNA 1: ATGGAACACATTGCACAGGATGTATATATCTGACACGTGCCTGGAGACTAGGGAGTAATCCCCTTGGCGGTTAAAACGCGGGGGACAGCGCGTACGTGCGTTTAAGCGGTGCTAGAGCTGTCTACGACCAATTGAGCGGCCTCGGCACCGGGATTCTCCAGGGCGGCCGCGTATT DNA 2: AATACGCGGCCGCCCTGGAGAATCCCGGTGCCGAGGCCGCTCAATTGGTCGTAGACAGCTCTAGCACCGCTTAAACGCACGTACGCGCTGTCCCCCGCGTTTTAACCGCCAAGGGGATTACTCCCTAGTCTCCAGGCACGTGTCAGATATATACATCCTGTGCAATGTGTTCCAT	1000	581	220	240	596	85.2	binding result [1]: no binding; Kd [8]: 217 nM
15-N601-15 nucleosome -61 meCpG (nucleosome, meCpG at -61 (GGCACCGGGATT)) DNA 1: ATGGAACACATTGCACAGGATGTATATATCTGACACGTGCCTGGAGACTAGGGAGTAATCCCCTTGGCGGTTAAAACGCGGGGGACAGCGCGTACGTGCGTTTAAGCGGTGCTAGAGCTGTCTACGACCAATTGAGCGGCCTCGGCACCGGGATTCTCCAGGGCGGCCGCGTATT DNA 2: AATACGCGGCCGCCCTGGAGAATCCCGGTGCCGAGGCCGCTCAATTGGTCGTAGACAGCTCTAGCACCGCTTAAACGCACGTACGCGCTGTCCCCCGCGTTTTAACCGCCAAGGGGATTACTCCCTAGTCTCCAGGCACGTGTCAGATATATACATCCTGTGCAATGTGTTCCAT	809	–	137	–	534	78.6	binding result [1]: no binding
16-N603-30 nucleosome unmethylated (nucleosome) DNA 1: GAGCCACAAAATCACCGACGCTCACGGGTGCCCAGTTCGCGCGCCCACCTACCGTGTGAAGTCGTCACTCGGGCTTCTAAGTACGCTTAGCGCACGGTAGAGCGCAATCCAAGGCTAACCACCGTGCATCGATGTTGAAAGAGGCCCTCCGTCCTTATTACTTCAAGTCCCTGGGGTACCCGTTTCACTGCCA DNA 2: TGGCAGTGAAACGGGTACCCCAGGGACTTGAAGTAATAAGGACGGAGGGCCTCTTTCAACATCGATGCACGGTGGTTAGCCTTGGATTGCGCTCTACCGTGCGCTAAGCGTACTTAGAAGCCCGAGTGACGACTTCACACGGTAGGTGGGCGCGCGAACTGGGCACCCGTGAGCGTCGGTGATTTTGTGGCTC	716	298	94.9	94.6	188	41.5	–
N603-30 nucleosome 91 meCpA (nucleosome, asymmetric meCpA at 91) DNA 1: GAGCCACAAAATCACCGACGCTCACGGGTGCCCAGTTCGCGCGCCCACCTACCGTGTGAAGTCGTCACTCGGGCTTCTAAGTACGCTTAGCGCACGGTAGAGCGCAATCCAAGGCTAACCACCGTGCATCGATGTTGAAAGAGGCCCTCCGTCCTTATTACTTCAAGTCCCTGGGGT DNA 2: ACCCCAGGGACTTGAAGTAATAAGGACGGAGGGCCTCTTTCAACATCGATGCACGGTGGTTAGCCTTGGATTGCGCTCTACCGTGCGCTAAGCGTACTTAGAAGCCCGAGTGACGACTTCACACGGTAGGTGGGCGCGCGAACTGGGCACCCGTGAGCGTCGGTGATTTTGTGGCTC	–	–	61.4	–	–	–	Kd [9]: 47 nM
N601 nucleosome core particle unmethylated (nucleosome) DNA 1: CAGGATGTATATATCTGACACGTGCCTGGAGACTAGGGAGTAATCCCCTTGGCGGTTAAAACGCGGGGGACAGCGCGTACGTGCGTTTAAGCGGTGCTAGAGCTGTCTACGACCAATTGAGCGGCCTCGGCACCGGGATTCTCCA DNA 2: TGGAGAATCCCGGTGCCGAGGCCGCTCAATTGGTCGTAGACAGCTCTAGCACCGCTTAAACGCACGTACGCGCTGTCCCCCGCGTTTTAACCGCCAAGGGGATTACTCCCTAGTCTCCAGGCACGTGTCAGATATATACATCCTG	–	1970	–	734	–	–	binding result [4]: no binding; Kd [10]: 786 nM; Kd [8]: 1830 nM
N603-30 nucleosome (single 30 bp linker) (nucleosome) DNA 1: GAGCCACAAAATCACCGACGCTCACGGGTGCCCAGTTCGCGCGCCCACCTACCGTGTGAAGTCGTCACTCGGGCTTCTAAGTACGCTTAGCGCACGGTAGAGCGCAATCCAAGGCTAACCACCGTGCATCGATGTTGAAAGAGGCCCTCCGTCCTTATTACTTCAAGTCCCTGGGGT DNA 2: ACCCCAGGGACTTGAAGTAATAAGGACGGAGGGCCTCTTTCAACATCGATGCACGGTGGTTAGCCTTGGATTGCGCTCTACCGTGCGCTAAGCGTACTTAGAAGCCCGAGTGACGACTTCACACGGTAGGTGGGCGCGCGAACTGGGCACCCGTGAGCGTCGGTGATTTTGTGGCTC	–	–	102	–	–	–	Kd [9]: 86.9 nM
20 bp dsDNA (dsDNA) DNA 1: AATACGCGGCCGCCCTGGAG DNA 2: CTCCAGGGCGGCCGCGTATT	–	–	–	–	–	–	Kd [11]: 814 ± 50.1 nM
